Experimental data taken from article PMC5824358.

Target: T1, 65K C-RRM WT untagged (UniProt Q96LT9 381-516)
T1 sequence: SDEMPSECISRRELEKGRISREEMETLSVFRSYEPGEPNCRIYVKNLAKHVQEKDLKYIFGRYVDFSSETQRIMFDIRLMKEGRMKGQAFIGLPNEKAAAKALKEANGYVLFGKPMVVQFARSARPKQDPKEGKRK
Assay: NMR chemical shift perturbation

B1: U12 oligo (structured_RNA)
RNA: CCCGCCUACUUUGCGGG
B1: binds.
